Reference: the supplement of paper PMC10567573

B1: C9orf25 (parent)
chain: LARKGSLKNGSMGSPVNQQPKKNN

Variants of: B1
Test: protein stability index of a GFP-peptide fusion (GPS, HEK-293T) (PSI 1-6); higher = more stable
Conditions: c terminus: a fixed tail appended
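Note: lentivirally expressed fusions sorted by FACS into six bins by GFP to DsRed ratio, PSI derived from sequencing read proportions per bin multiplied by bin number.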

In order of falling protein stability index:
1. SARKGSLKNGSMGSPVNQQPKKNN  5.53
2. EARKGSLKNGSMGSPVNQQPKKNN  5.35
3. AARKGSLKNGSMGSPVNQQPKKNN  5.34
4. LPRKGSLKNGSMGSPVNQQPKKNN  5.21
5. LADKGSLKNGSMGSPVNQQPKKNN  5.2
6. LARGGSLKNGSMGSPVNQQPKKNN  5.17
7. GARKGSLKNGSMGSPVNQQPKKNN  5.15
8. LERKGSLKNGSMGSPVNQQPKKNN  5.09
9. LARFGSLKNGSMGSPVNQQPKKNN  5.08
10. DARKGSLKNGSMGSPVNQQPKKNN  5.07
11. NARKGSLKNGSMGSPVNQQPKKNN  5.07
12. LARKKSLKNGSMGSPVNQQPKKNN  5.05
13. LAAKGSLKNGSMGSPVNQQPKKNN  5.05
14. LAPKGSLKNGSMGSPVNQQPKKNN  5.03
15. LAGKGSLKNGSMGSPVNQQPKKNN  5.02
16. LARTGSLKNGSMGSPVNQQPKKNN  5
17. LAQKGSLKNGSMGSPVNQQPKKNN  4.99
18. LANKGSLKNGSMGSPVNQQPKKNN  4.96
19. HARKGSLKNGSMGSPVNQQPKKNN  4.95
20. VARKGSLKNGSMGSPVNQQPKKNN  4.92
21. LARPGSLKNGSMGSPVNQQPKKNN  4.92
22. LAREGSLKNGSMGSPVNQQPKKNN  4.91
23. LMRKGSLKNGSMGSPVNQQPKKNN  4.9
24. MARKGSLKNGSMGSPVNQQPKKNN  4.89
25. LARDGSLKNGSMGSPVNQQPKKNN  4.88
26. LDRKGSLKNGSMGSPVNQQPKKNN  4.87
27. QARKGSLKNGSMGSPVNQQPKKNN  4.85
28. LAHKGSLKNGSMGSPVNQQPKKNN  4.85
29. LAMKGSLKNGSMGSPVNQQPKKNN  4.85
30. LACKGSLKNGSMGSPVNQQPKKNN  4.85
31. LATKGSLKNGSMGSPVNQQPKKNN  4.85
32. LAVKGSLKNGSMGSPVNQQPKKNN  4.85
33. LARKESLKNGSMGSPVNQQPKKNN  4.82
34. RARKGSLKNGSMGSPVNQQPKKNN  4.81
35. LARKSSLKNGSMGSPVNQQPKKNN  4.8
36. LHRKGSLKNGSMGSPVNQQPKKNN  4.77
37. LGRKGSLKNGSMGSPVNQQPKKNN  4.76
38. PARKGSLKNGSMGSPVNQQPKKNN  4.76
39. KARKGSLKNGSMGSPVNQQPKKNN  4.76
40. LARCGSLKNGSMGSPVNQQPKKNN  4.74
41. LARAGSLKNGSMGSPVNQQPKKNN  4.74
42. LAYKGSLKNGSMGSPVNQQPKKNN  4.73
43. LSRKGSLKNGSMGSPVNQQPKKNN  4.72
44. LAEKGSLKNGSMGSPVNQQPKKNN  4.69
45. LARSGSLKNGSMGSPVNQQPKKNN  4.68
46. LARHGSLKNGSMGSPVNQQPKKNN  4.68
47. LASKGSLKNGSMGSPVNQQPKKNN  4.67
48. IARKGSLKNGSMGSPVNQQPKKNN  4.66
49. LQRKGSLKNGSMGSPVNQQPKKNN  4.63
50. LARMGSLKNGSMGSPVNQQPKKNN  4.62
51. LARKQSLKNGSMGSPVNQQPKKNN  4.6
52. LNRKGSLKNGSMGSPVNQQPKKNN  4.59
53. LLRKGSLKNGSMGSPVNQQPKKNN  4.58
54. LARKDSLKNGSMGSPVNQQPKKNN  4.58
55. LAIKGSLKNGSMGSPVNQQPKKNN  4.58
56. LTRKGSLKNGSMGSPVNQQPKKNN  4.54
57. LAFKGSLKNGSMGSPVNQQPKKNN  4.54
58. LARKTSLKNGSMGSPVNQQPKKNN  4.53
59. LARKASLKNGSMGSPVNQQPKKNN  4.5
60. LARKHSLKNGSMGSPVNQQPKKNN  4.49
61. LARKPSLKNGSMGSPVNQQPKKNN  4.48
62. LARVGSLKNGSMGSPVNQQPKKNN  4.42
63. LALKGSLKNGSMGSPVNQQPKKNN  4.41
64. LIRKGSLKNGSMGSPVNQQPKKNN  4.37
65. LARKRSLKNGSMGSPVNQQPKKNN  4.34
66. LARKGALKNGSMGSPVNQQPKKNN  4.33
67. LAKKGSLKNGSMGSPVNQQPKKNN  4.33
68. CARKGSLKNGSMGSPVNQQPKKNN  4.32
69. TARKGSLKNGSMGSPVNQQPKKNN  4.31
70. WARKGSLKNGSMGSPVNQQPKKNN  4.3
71. LARKCSLKNGSMGSPVNQQPKKNN  4.29
72. LARKVSLKNGSMGSPVNQQPKKNN  4.26
73. LARNGSLKNGSMGSPVNQQPKKNN  4.25
74. LARLGSLKNGSMGSPVNQQPKKNN  4.23
75. LARWGSLKNGSMGSPVNQQPKKNN  4.15
76. LAWKGSLKNGSMGSPVNQQPKKNN  4.14
77. LARYGSLKNGSMGSPVNQQPKKNN  4.13
78. LCRKGSLKNGSMGSPVNQQPKKNN  4.12
79. LVRKGSLKNGSMGSPVNQQPKKNN  4.07
80. LARKNSLKNGSMGSPVNQQPKKNN  4.07
81. LARKMSLKNGSMGSPVNQQPKKNN  4.06
82. LARKWSLKNGSMGSPVNQQPKKNN  4.06
83. LFRKGSLKNGSMGSPVNQQPKKNN  4.04
84. LWRKGSLKNGSMGSPVNQQPKKNN  4.03
85. LARKFSLKNGSMGSPVNQQPKKNN  4
86. LARKISLKNGSMGSPVNQQPKKNN  3.99
87. FARKGSLKNGSMGSPVNQQPKKNN  3.96
88. LARQGSLKNGSMGSPVNQQPKKNN  3.95
89. YARKGSLKNGSMGSPVNQQPKKNN  3.77
90. LARRGSLKNGSMGSPVNQQPKKNN  3.74
91. LARIGSLKNGSMGSPVNQQPKKNN  3.71
92. LRRKGSLKNGSMGSPVNQQPKKNN  3.68
93. LARKLSLKNGSMGSPVNQQPKKNN  3.55
94. LARKYSLKNGSMGSPVNQQPKKNN  3.27
